# From IntAct's records for PubMed 24256567
# B1: Tyrosine-protein kinase ZAP-70 (Homo sapiens), P43403 (parent)
# chain: MPDPAAHLPFFYGSISRAEAEEHLKLAGMADGLFLLRQCLRSLGGYVLSLVHDVRFHHFPIERQLNGTYAIAGGKAHCGPAELCEFYSRDPDGLPCNLRKPCNRPSGLEPQPGVFDCLRDAMVRDYVRQTWKLEGEALEQAIISQAPQVEKLIATTAHERMPWYHSSLTREEAERKLYSGAQTDGKFLLRPRKEQGTYALSLIYGKTVYHYLISQDKAGKYCIPEGTKFDTLWQLVEYLKLKADGLIYCLKEACPNSSASNASGAAAPTLPAHPSTLTHPQRRIDTLNSDGYTPEPARITSPDKPRPMPMDTSVYESPYSDPEELKDKKLFLKRDNLLIADIELGCGNFGSVRQGVYRMRKKQIDVAIKVLKQGTEKADTEEMMREAQIMHQLDNPYIVRLIGVCQAEALMLVMEMAGGGPLHKFLVGKREEIPVSNVAELLHQVSMGMKYLEEKNFVHRDLAARNVLLVNRHYAKISDFGLSKALGADDSYYTARSAGKWPLKWYAPECINFRKFSSRSDVWSYGVTMWEALSYGQKPYKKMKGPEVMAFIEQGKRMECPPECPPELYALMSDCWIYKWEDRPDFLTVEQRMRACYYSLASKVEGPPGSTQKAEAACA
# Variants of: B1
# Settings: with ubs3b_mouse Ubash3b
row,effect of a mutation on the interaction,Variant
1,disrupting interaction,Y319F
